This note sets out measurements from PMC9592559 (Structure(London, England:1993), 2022).

This data set concerns the molecule itself. Put plainly: SEC; analytical gel filtration of TOP2B (45–444) in the presence and absence of AMPPNP. For orientation: In gel filtration, larger molecules generally elute earlier.

B1: human TOP2B ATPase domain (45–444) (domain or fragment, UniProt Q02880-2 45-444, looked up)
chain: SVERVYQKKTQLEHILLRPDTYIGSVEPLTQFMWVYDEDVGMNCREVTFVPGLYKIFDEILVNAADNKQRDKNMTCIKVSIDPESNIISIWNNGKGIPVVEHKVEKVYVPALIFGQLLTSSNYDDDEKKVTGGRNGYGAKLCNIFSTKFTVETACKEYKHSFKQTWMNNMMKTSEAKIKHFDGEDYTCITFQPDLSKFKMEKLDKDIVALMTRRAYDLAGSCRGVKVMFNGKKLPVNGFRSYVDLYVKDKLDETGVALKVIHELANERWDVCLTLSEKGFQQISFVNSIATTKGGRHVDYVVDQVVGKLIEVVKKKNKAGVSVKPFQVKNHIWVFINCLIENPTFDSQTKENMTLQPKSFGSKCQLSEKFFKAASNCGIVESILNWVKFKAQTQLNKKCS
notes: Cloned by LIC into the pET His6 MBP Asn10 TEV LIC vector (1C), Addgene plasmid 29654; The models hold residues 46–429 (7QFO), 47–422 (7QFN) and 45–422 (7ZBG); not shown: His6, N-terminal, cleaved; MBP, N-terminal, cleaved
In general, stoichiometry N refers to a count of units in the complex or per binding partner. With B1, the “stoichiometry N” value was found to be 2.
